Measured values taken from the nanobody polyreactivity screen of Harvey et al. (2022).

Experiment: yeast display, Sf9 membrane polyspecificity reagent, FACS + sequencing; frameworks hold sequencing errors
How it was run: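 A nanobody's polyreactivity label depends on the gate it was sorted from. Yeast display cells were stained with 10% biotinylated, detergent-solubilized Sf9 membrane reagent for 1 hour at 4 °C, enriched on streptavidin microbeads and sorted by FACS. The low and high (top ~1%) gates were set on anti-HA fluorescence for expression and streptavidin fluorescence for reagent binding.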

Sequence | polyreactivity (PSR sort gate)
QVQLVESGGGLVQAGGSLRISCAASGITFYGYAMGRYRQAPGKERELVATISKSGGITSYADSVKGRFTISRDNAKNTVYLQMNSLKPEDTAVYYCNRGKSYGGYDYWGQGTQVTVSS | low polyreactivity
QVQLVESGGGLVQAGGSLRLSCAASGRTFDAYAMGRYRQAPGKERELVARITSGGSTKYADSVKGRFTISRDNAKNTVYLQMNSLKPEDTAVYYCAAAQYWPSFFSNRVYYRNDYWGQGTQVTVSS | high polyreactivity
QVHLVESGGGLVQAGGSLRLSCDASGSTFGYYAMGWYRQAPGKERELVAAISWNGVSTYYADSVKGRFTISRDNAKNTVYLQMNCLKPEDTAVYYCATVGLRRLFVNPGTLMDYWGEGTQVTVSS | low polyreactivity
QVQLVESGGGLVQAGGSLRLSCAASGSILAAYAKGWYRQAPGKERELVAAISLDDGSTYYADSVKGRFTISRDNAKNTVYFQMNSLKPVDTAVYYCAADYYVRSQLLYATSGNYWGQGTQVTVTS | high polyreactivity
QVQLVESGGGLVQAGGSLRLSCAASGRIFWPYAMGWYRQAPGKERELVAAISRGGSTYYADSVKGRFTISRDNAKNTVYLQINSLKPEDTAVYYCAVAFRGSYRPAYYYWRQGTQVTVSS | high polyreactivity
QVQLVESAGVLVQAGGSLRLSCAACGSIFDYYALGWYRQAPGKERELVDTISGGGGTTYYADSVKGRFTISRDNAKNTVYLIMNSLKPEDTAVYYCAADSLGYNYWGQGTQVTVSS | low polyreactivity
QVQLVESGGGLVQAGGSLRLSCAASGRIFGTNAMGWYRQAPGKERELVADITSGGSTNYADSVKGRFTISRDNAKNTVYLQMNSLKPEDTSVYYCAATWYGYYSRYDFYYWGQGTQVTVSS | low polyreactivity
QVQLVESGGGLVQAGGSLRLSCAASGFIFVRYAMGWYRQAPGKQRELVASITRSGGSTYYADSVKGRFTISRDNAKNTVYLQMNSLKPEDTAVYYCAASYFRSRGSTYGYWGQGTQVTVSS | high polyreactivity
QVQLVESGGGLVQAGGSLRLSCAASGSTFRYYVMGWSRQAPGKEMELVAGISYRGGTTYYADSVKGRFTISRDNAKITVYLQMNSMKPEDTAVYYCNAGYTLYHYYSWYAFGYWGQGTQGTVSS | low polyreactivity
QVQLVESGGGLVQAGGSLRLSCAASGFTFRQYAMGWYRQAPGKERELVAAISRSGSRTYYADSVKGRFTISRDNAKNTVYLQMNSLKPEDTAVYYCNAVFSTFTGEYYWGQGSQVTVSS | high polyreactivity
QVQLVESGGGLVQAGGSLRLSCAASGSTFAANAMGWYRQAPGKERELVAALTRSGGSTYYADSVKGRFTISRDNAKNTVYLQMNSLKPEDTAVYYCASKYHTRGVQHGYWGQGTQVTVSS | low polyreactivity
QVQLVEAGGGLVQAGGSLRLSCASSGRIFPFNAMGRYRQAPGKEREFVAAIRLSGTRKYYADSVKGRFTISRDNAKNTVYLQMNSLKPEDTAVYYCAAKYSGHYYNYDYWGQGTQVTVSS | high polyreactivity
QVQLVESGGGLVQAGGSLRLSCAASGSTFWTNAMGWYRQAPGKERELVATITYSTGTYADSVKGRFTISRDNAKNTVYLQMNSLKPEDTAVYYCAADFWYRTVYGYFGYVYWGQGTQVTVSS | low polyreactivity
QVQLVESGGGLVQAGGSLRLSCAASGRTFYRYAMGWYRQAPGKERELVATISRSGGSTYYADSVKGRFTISRDNAKYTVYLQMKSLNPEDTAVYYCNAEGYPWGFYTYDYWGQGTQVTVSS | low polyreactivity
QVQLVESGGCLVQARGSLRLRCAASGGTFYAYAMGWYREAPGKERELVAAISRSGSTYYADSVKGRFTISRDNAKNTVYLQMNSLKPEDTAVYYCAARRARRDPVGYVYAKYVYWGQGTQVTVSS | high polyreactivity
QVQLVESGAGLVQAGGSLRLSCAASGRTFSAYAMGWYRQAPGKERELVAAITLSVGSTYYADSVKGRFTISRDNAKTTVYLQMNSLKPEDTAVYYCNKYKKGEGGITIVRFDYWGQGTQVTVSS | low polyreactivity
QVQLVESGGGLVQAGGSLRLSCAASGSTFYPYTMGWYRQAPGKERELVAAITSGGNTNYADSVKGRFTISRDNAKNTVYLQMNSLKPEDTAVYYCNAEPEGTTGNYFPYDYWGQGTQVTVSS | low polyreactivity
